In patent publication US12692303:

Assays:
[1] = molecular target: Human interleukin 23 (hIL-23) (human) (UniProt Q9NPF7); test: SPR, Biacore T200, antibody captured on Protein A chip, IL-23 in flow, 25 °C, 1:1 model
[2] = molecular target: Human interleukin 23 (hIL-23) (human) (UniProt Q9NPF7); test: cell-based or functional assay
Natural IL-23 (human) = Natural IL-23 (human) (UniProt Q9NPF7); test: binding ELISA, antibody coated at 1 µg/ml, IL-23 titrated, anti-His detection
Sequence of Natural IL-23 (human) (Q9NPF7 20-189 limits assumed, chain 1 of 2): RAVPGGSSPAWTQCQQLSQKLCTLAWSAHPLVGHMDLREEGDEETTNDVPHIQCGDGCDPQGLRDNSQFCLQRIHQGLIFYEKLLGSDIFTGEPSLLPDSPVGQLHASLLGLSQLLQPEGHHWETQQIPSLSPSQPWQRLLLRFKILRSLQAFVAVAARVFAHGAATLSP
Sequence of Natural IL-23 (human) (chain, as listed by the source limits assumed, chain 2 of 2): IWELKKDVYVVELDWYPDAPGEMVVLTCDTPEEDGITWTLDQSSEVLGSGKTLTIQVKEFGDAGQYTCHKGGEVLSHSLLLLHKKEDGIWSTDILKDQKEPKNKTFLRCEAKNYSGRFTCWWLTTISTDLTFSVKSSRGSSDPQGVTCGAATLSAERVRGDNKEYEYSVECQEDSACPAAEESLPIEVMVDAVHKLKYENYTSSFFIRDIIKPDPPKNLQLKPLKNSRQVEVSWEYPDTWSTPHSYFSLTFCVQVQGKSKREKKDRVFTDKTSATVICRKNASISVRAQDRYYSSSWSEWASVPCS

Sequence of Human interleukin 23 (hIL-23) (human) (Q9NPF7 20-189 limits assumed, chain 1 of 2): as the sequence (Q9NPF7 20-189 limits assumed, chain 1 of 2) above
Sequence of Human interleukin 23 (hIL-23) (human) (chain, as listed by the source limits assumed, chain 2 of 2): as the sequence (chain, as listed by the source limits assumed, chain 2 of 2) above

B1: Risankizumab (antibody, INN chains, looked up, V domains shown)
VH: QVQLVQSGAEVKKPGSSVKVSCKASGYTFTDQTIHWMRQAPGQGLEWIGYIYPRDDSPKYNENFKGKVTITADKSTSTAYMELSSLRSEDTAVYYCAIPDRSGYAWFIYWGQGTLVTVSS
VL: DIQMTQSPSSLSASVGDRVTITCKASRDVAIAVAWYQQKPGKVPKLLIYWASTRHTGVPSRFSGSGSRTDFTLTISSLQPEDVADYFCHQYSSYPFTFGSGTKLEIKR
[1]
  Kd: 0.052 nM
  koff: 3.7e-05 s⁻¹
  kon: 706000 M⁻¹ s⁻¹
[2]
  IC50, inhibition of phosphorylation of STAT3 in HEK Blue IL-23 cells induced by IL-23: 3.51 ng/mL
  IC50, inhibition of release of IFN-γ from human NK cells induced by IL-23: 11.1 ng/mL
  IC50, inhibition of release of IL-17A from mouse spleen cells induced by IL-23: 8.43 ng/mL
Natural IL-23 (human)
  EC50: 1.8 ng/mL
